How the values were obtained:
[1] = target: T1, Full-length human SMYD2 (residues 1-433), wild type (human, UniProt Q9NRG4 1-433); assay: ITC; two-site model, KD1
[2] = target: T1, Full-length human SMYD2 (residues …); assay: ITC; one-site model (n = 2.01)
SMYD2-F184A = SMYD2-F184A (human, UniProt Q9NRG4 1-433, F184A); assay: ITC; one-site model
[3] = target: T1, Full-length human SMYD2 (residues …); assay: ITC; two-site model, KD2 (second site)

T1 sequence (Q9NRG4 whole entry, the tested form may be a part): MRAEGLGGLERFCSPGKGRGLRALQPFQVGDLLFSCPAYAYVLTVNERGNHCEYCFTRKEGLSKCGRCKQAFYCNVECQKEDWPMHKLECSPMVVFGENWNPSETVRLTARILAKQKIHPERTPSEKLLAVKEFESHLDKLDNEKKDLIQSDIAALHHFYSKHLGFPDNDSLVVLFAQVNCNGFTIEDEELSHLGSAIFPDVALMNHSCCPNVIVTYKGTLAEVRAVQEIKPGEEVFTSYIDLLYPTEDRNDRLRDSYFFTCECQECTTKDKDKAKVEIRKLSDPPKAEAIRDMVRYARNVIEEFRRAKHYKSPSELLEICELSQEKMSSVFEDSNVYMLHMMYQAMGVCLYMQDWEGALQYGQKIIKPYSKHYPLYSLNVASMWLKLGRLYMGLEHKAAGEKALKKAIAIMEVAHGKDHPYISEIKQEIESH
Chain of SMYD2-F184A (Q9NRG4 whole entry F184A): as the sequence (Q9NRG4 whole entry, the tested form may be a part) above, with F184A counted along it

Kd [1]: 17.8 µM
Kd [2]: 17.7 µM
Kd (SMYD2-F184A): 41.7 µM
Kd [3]: 18.2 µM
B1: PARP1 peptide (13-residue synthetic peptide, human PARP1 residues 522-534) (peptide)
peptide: RMKLTLKGGAAVD

Reference: paper doi:10.1101/2024.12.03.626679 (2024)
